The values that follow come from publication PMC11678472, “Comparative Analysis of Symmetry Parameters in the E2 Inner Core of the Pyruvate Dehydrogenase Complex” (International Journal of Molecular Sciences, 2024).

This series deals with the molecule itself. Nature of the series: cryo-EM structure; single-particle analysis of purified truncated E2 (4 uL of 100 nM) on a holey carbon grid, vitrified at 4 °C and 100% humidity; 69,946 particles; reconstructed with C1, C5, D2, T and I symmetry (4.93 to 4.20 Å).

B1: truncated dihydrolipoyl acetyltransferase (E2) of the pyruvate dehydrogenase complex of B. stearothermophilus, amino acids 185 to 425 (catalytic core domain … (domain or fragment, Bacillus stearothermophilus, UniProt P11961 185-425, looked up)
chain: AAAKPATTEGEFPETREKMSGIRRAIAKAMVHSKHTAPHVTLMDEADVTKLVAHRKKFKAIAAEKGIKLTFLPYVVKALVSALREYPVLNTSIDDETEEIIQKHYYNIGIAADTDRGLLVPVIKHADRKPIFALAQEINELAEKARDGKLTPGEMKGASCTITNIGSAGGQWFTPVINHPEVAILGIGRIAEKPIVRDGEIVAAPMLALSLSFDHRMIDGATAQKALNHIKRLLSDPELLL
notes: dihydrolipoyl acetyltransferase (E2) of the pyruvate dehydrogenase complex, Bacillus stearothermophilus, UniProt P11961; Forms an icosahedral inner core built of trimeric units; It says only that I symmetry has 60 elements; The monomer runs at about 32 kDa on SDS-PAGE, more than residues 185-425 alone, so tags are probably present; also called truncated E2; E2 inner core complex; source: E. coli …
For orientation: stoichiometry N means the number of molecules, sites or subunits per partner or assembly. As to B1, the “stoichiometry N” value turned out to be 3.
